Data from US20180282719A1 (published 2018).
Like-named read-outs stand apart in the source and are kept apart here.

Legend:
[1] = biological target: T1, recombinant soluble human IL-6 receptor (SR344) (human, UniProt P08887 20-344, biotinylated (sites not given) where immobilized via streptavidin or used in phage ELISA); assay: SPR Biacore T100, biotinylated SR344 on streptavidin chip (model of membrane-type IL-6 receptor), antibody as analyte, bound at pH 7.4, dissociation at pH 7.4, 37 C
T1 construct: also called soluble IL-6 receptor; membrane-type IL-6 receptor (when biotinylated and immobilized on the chip)
T1 sequence (looked up): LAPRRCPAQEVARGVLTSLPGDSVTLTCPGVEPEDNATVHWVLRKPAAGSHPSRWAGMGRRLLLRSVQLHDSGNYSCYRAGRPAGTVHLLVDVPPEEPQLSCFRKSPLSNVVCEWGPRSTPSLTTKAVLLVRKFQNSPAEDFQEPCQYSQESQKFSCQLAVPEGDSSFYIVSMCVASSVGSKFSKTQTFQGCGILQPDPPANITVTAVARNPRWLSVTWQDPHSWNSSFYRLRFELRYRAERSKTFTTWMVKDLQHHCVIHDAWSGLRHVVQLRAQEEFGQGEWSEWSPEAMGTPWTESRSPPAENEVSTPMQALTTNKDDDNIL
Experimental: (§1) Binding to the membrane-type IL-6 receptor was evaluated by evaluating binding to the IL-6 receptor immobilized on a sensor chip. SR344 was biotinylated in accordance with a method known among persons with ordinary skill in the art, and the biotinylated SR344 was immobilized on the sensor chip via streptavidin using the affinity between streptavidin and biotin. All the measurements were carried out at 37° C. The mobile phase buffer was 10 mM MES (pH 5.8), 150 mM NaCl and 0.05% TWEEN® 20 (polyoxyethelene sorbitan monolaurate).
(§2) The pH-dependently-binding clones were injected under the condition of pH 7.4 to allow them to bind to SR344, and then, the pH-dependent dissociation of each clone at the pH of the mobile phase, pH 5.8, was observed. The results are shown in FIG. 21 (results for Fv1-M71, Fv1-M73, Fv3-M71, and Fv3-M73 are shown in FIG. 21, while results for other clones are shown in FIGS. 17 and 19). Analyses were carried out in the same manner as in Example 10 and the pH dependencies of the dissociation rate constants of all of the eleven types of clones are shown in Table 12.

[2] = biological target: T1, recombinant soluble human IL-6 receptor …; assay: SPR Biacore T100, biotinylated SR344 on streptavidin chip (model of membrane-type IL-6 receptor), antibody as analyte, bound at pH 7.4, dissociation at pH 5.8, 37 C
Experimental: as §1, §2

[3] = biological target: T1, recombinant soluble human IL-6 receptor …; assay: SPR Biacore T100, biotinylated SR344 on streptavidin chip (model of membrane-type IL-6 receptor), antibody as analyte, 37 C
Experimental: as §1, §2

[4] = biological target: T1, recombinant soluble human IL-6 receptor …; assay: SPR Biacore T100, antibody captured by anti-IgG gamma chain F(ab)2, SR344 analyte, pH 7.4, 37 C
Experimental: (§3) Kinetic analyses of antigen-antibody reactions at pH 7.4 were carried out on the four types of antibodies, i.e., the humanized PM1 antibody (wild type: WT), and […], H3pI/L73-IgG1, Fv2-IgG1, and Fv4-IgG1 constructed in Examples 2 and 10, by using a Biacore T100™ surface plasmon resonance system (GE Healthcare) (buffer: 10 mM MES (pH 7.4), 150 mM NaCl, 0.05% TWEEN® 20 (polyoxyethelene sorbitan monolaurate)). Each antibody was bound on a sensor chip on which an anti-IgG γ chain specific F(ab)₂ (Pierce) was immobilized by amine coupling, and then, SR344 adjusted to a concentration of 9.8 to 40 nM was injected thereto as an analyte. The association to and dissociation from SR344 were observed on a real-time basis for the pH-dependent-binding clones. All the measurements were carried out at 37° C. Association rate constants kₐ (1/Ms) and dissociation rate constants kd (1/s) were calculated using Biacore T100™ Evaluation Software (GE Healthcare), and dissociation constants KD (M) were calculated on the basis of those values (Table 7).
(§4) The association to and dissociation from SR344 were observed on a real-time basis using the same method as Example 10 for the eleven types of antibodies, humanized PM1 antibody (wild type: WT) and H3pI/L73-IgG1, Fv1-M71, Fv1-M73, Fv2-IgG1, Fv3-M71, Fv3-M73, Fv4-IgG1, Fv4-IgG2, Fv4-M58, and Fv4-M73, constructed as described above. The association rate constants kₐ (1/Ms) and dissociation rate constants kd. (1/s) were calculated by analysis in the same manner, and the dissociation constants KD (M) were calculated on the basis of those values (Table 11).

[5] = biological target: T1, recombinant soluble human IL-6 receptor …; assay: SPR Biacore T100, biotinylated SR344 on streptavidin chip (model of membrane-type IL-6 receptor), antibody as analyte, bound at pH 7.4, dissociation at pH 5.8, 37 C; remark: listed apart in the source
Experimental: as §1, §2

[6] = biological target: T1, recombinant soluble human IL-6 receptor …; assay: SPR Biacore T100, antibody captured by anti-IgG gamma chain F(ab)2, SR344 analyte, pH 7.4, 37 C; remark: listed apart in the source
Experimental: as §3, §4

[7] = biological target: T1, recombinant soluble human IL-6 receptor …; assay: SPR Biacore T100, biotinylated SR344 on streptavidin chip (model of membrane-type IL-6 receptor), antibody as analyte, 37 C; remark: listed apart in the source
Experimental: as §1, §2

[8] = biological target: T1, recombinant soluble human IL-6 receptor …; assay: SPR Biacore T100, biotinylated SR344 on streptavidin chip (model of membrane-type IL-6 receptor), antibody as analyte, bound at pH 7.4, dissociation at pH 7.4, 37 C; remark: listed apart in the source
Experimental: as §1, §2

Binder | koff [1] [s⁻¹] | koff [2] [s⁻¹] | kd (pH 5.8)/kd (pH 7.4) [3] | Kd [4] [nM] | koff [4] [s⁻¹] | kon [4] [M⁻¹ s⁻¹] | koff [5] [s⁻¹] | Kd [6] [nM] | koff [6] [s⁻¹] | kon [6] [M⁻¹ s⁻¹] | kd (pH 5.8)/kd (pH 7.4) [7] | koff [8] [s⁻¹]
Fv4-M58 (antibody, VH3-M58 / VL3-CK) heavy: QVQLQESGPGLVKPSETLSLTCAVSGHSISHDHAWSWVRQPPGEGLEWIGFISYSGITNYNPSLQGRVTISRDNSKNTLYLQMNSLRAEDTAVYYCARSLARTTAMDYWGEGTLVTVSSASTKGPSVFPLAPSSKSTSGGTAALGCLVKDYFPEPVTVSWNSGALTSGVHTFPAVLQSSGLYSLSSVVTVPSSNFGTQTYTCNVDHKPSNTKVDKTVERKSCVECPPCPAPPVAGPSVFLFPPKPKDTLMISRTPEVTCVVVDVSQEDPEVQFNWYVDGVEVHNAKTKPREEQFNSTFRVVSVLTVVHQDWLNGKEYKCKVSNKGLPAPIEKTISKTKGQPREPQVYTLPPSQEEMTKNQVSLTCLVKGFYPSDIAVEWESNGQPENNYKTTPPMLDSDGSFFLYSKLTVDKSRWQEGNVFSCSVMHEALHNHYTQKSLSLSP light: DIQMTQSPSSLSASVGDSVTITCQASTDISSHLNWYQQKPGKAPELLIYYGSHLLSGVPSRFSGSGSGTDFTFTISSLEAEDAATYYCGQGNRLPYTFGQGTKVEIERTVAAPSVFIFPPSDEQLKSGTASVVCLLNNFYPREAKVQWKVDNALQSGNSQESVTEQDSKDSTYSLSSTLTLSKADYEKHKVYACEVTHQGLSSPVTKSFNRGEC | 0.00054 | 0.0095 | 17.6 | 1.4 | 0.0011 | 830000 | 0.0095 | 1.4 | 0.0011 | 830000 | 17.6 | 0.00054
Fv4-IgG2 (antibody, VH3-IgG2deltaGK / VL3-CK; also called Fv4-IgG2deltaGK) heavy: QVQLQESGPGLVKPSETLSLTCAVSGHSISHDHAWSWVRQPPGEGLEWIGFISYSGITNYNPSLQGRVTISRDNSKNTLYLQMNSLRAEDTAVYYCARSLARTTAMDYWGEGTLVTVSSASTKGPSVFPLAPCSRSTSESTAALGCLVKDYFPEPVTVSWNSGALTSGVHTFPAVLQSSGLYSLSSVVTVPSSNFGTQTYTCNVDHKPSNTKVDKTVERKCCVECPPCPAPPVAGPSVFLFPPKPKDTLMISRTPEVTCVVVDVSHEDPEVQFNWYVDGVEVHNAKTKPREEQFNSTFRVVSVLTVVHQDWLNGKEYKCKVSNKGLPAPIEKTISKTKGQPREPQVYTLPPSREEMTKNQVSLTCLVKGFYPSDIAVEWESNGQPENNYKTTPPMLDSDGSFFLYSKLTVDKSRWQQGNVFSCSVMHEALHNHYTQKSLSLSP light: DIQMTQSPSSLSASVGDSVTITCQASTDISSHLNWYQQKPGKAPELLIYYGSHLLSGVPSRFSGSGSGTDFTFTISSLEAEDAATYYCGQGNRLPYTFGQGTKVEIERTVAAPSVFIFPPSDEQLKSGTASVVCLLNNFYPREAKVQWKVDNALQSGNSQESVTEQDSKDSTYSLSSTLTLSKADYEKHKVYACEVTHQGLSSPVTKSFNRGEC | 0.001 | 0.018 | 17 | 1.3 | 0.0012 | 960000 | 0.018 | 1.3 | 0.0012 | 960000 | 17 | 0.001
Fv4-M73 (antibody, VH3-M73 / VL3-CK) heavy: QVQLQESGPGLVKPSETLSLTCAVSGHSISHDHAWSWVRQPPGEGLEWIGFISYSGITNYNPSLQGRVTISRDNSKNTLYLQMNSLRAEDTAVYYCARSLARTTAMDYWGEGTLVTVSSASTKGPSVFPLAPSSKSTSGGTAALGCLVKDYFPEPVTVSWNSGALTSGVHTFPAVLQSSGLYSLSSVVTVPSSNFGTQTYTCNVDHKPSNTKVDKTVERKSCVECPPCPAPPVAGPSVFLFPPKPKDTLMISRTPEVTCVVVDVSQEDPEVQFNWYVDGVEVHNAKTKPREEQFNSTFRVVSVLTVVHQDWLNGKEYKCKVSNKGLPAPIEKTISKTKGQPREPQVYTLPPSQEEMTKNQVSLTCLVKGFYPSDIAVEWESNGQPENNYKTTPPMLDSDGSFFLYSKLTVDKSRWQEGNVFSCSVMHEALHAHYTQKSLSLSP light: DIQMTQSPSSLSASVGDSVTITCQASTDISSHLNWYQQKPGKAPELLIYYGSHLLSGVPSRFSGSGSGTDFTFTISSLEAEDAATYYCGQGNRLPYTFGQGTKVEIERTVAAPSVFIFPPSDEQLKSGTASVVCLLNNFYPREAKVQWKVDNALQSGNSQESVTEQDSKDSTYSLSSTLTLSKADYEKHKVYACEVTHQGLSSPVTKSFNRGEC | 0.00051 | 0.0051 | 10.1 | 1.4 | 0.001 | 750000 | 0.0051 | 1.4 | 0.001 | 750000 | 10.1 | 0.00051
